This is an account of results in US20140187758A1.

Assay [1] concerns the target European Corn Borer-aminopeptidase 1 (Ostrinia nubilalis).
Assay [2] deals with European Corn Borer-cadherin (Ostrinia nubilalis).

A word on the Kd: it is a measure of binding affinity in units of concentration. The low end stands for tighter binding, the high end for weaker binding. For “Cry1Ac core toxin (trypsin-cleaved Cry1Ac holotoxin) (from UniProt P05068 29-623) (ligand)”, the Kd is 107 nM in assay [1] and 48 nM in assay [2].
